The values below come from article PMC2686265, “ATP and MO25α Regulate the Conformational State of the STRADα Pseudokinase and Activation of the LKB1 Tumour Suppressor” (PLoS Biology, 2009).

One assay addresses T1, STRADα (Homo sapiens, UniProt Q7RTN6).
T1 construct: wild-type and mutant forms of STRADα (residues 54–431) and MO25α (residues 1–341) were expressed individually as GST fusion proteins in E. coli; GST (cleaved yes); made in house; host or cells: E. coli
T1 sequence (Q7RTN6 54-431): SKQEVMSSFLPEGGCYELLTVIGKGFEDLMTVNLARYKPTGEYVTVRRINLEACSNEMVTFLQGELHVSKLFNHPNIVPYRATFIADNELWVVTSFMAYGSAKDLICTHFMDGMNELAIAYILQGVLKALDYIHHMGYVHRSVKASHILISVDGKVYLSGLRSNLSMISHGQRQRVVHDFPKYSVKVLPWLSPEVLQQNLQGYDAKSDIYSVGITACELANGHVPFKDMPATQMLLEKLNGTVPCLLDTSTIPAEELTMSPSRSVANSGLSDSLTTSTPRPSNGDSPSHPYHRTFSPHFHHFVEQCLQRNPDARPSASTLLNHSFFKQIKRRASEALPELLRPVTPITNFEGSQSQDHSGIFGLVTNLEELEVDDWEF
Put plainly: TNP-ATP saturation binding (fluorescence). The conditions noted are these: STRADα alone. The protocol: (§1) Fluorescent measurements of TNP-ATP (Molecular Probes), were obtained at 25°C in assay buffer (with the addition of 0.5–1.0 mM MgCl2 where indicated) using 1-cm pathlength cuvettes in a VARIAN Cary Eclipse Fluorescence spectrophotometer (Varian). Fluorescence was recorded using a 410-nm/540-nm excitation/emission wavelengths from 500 to 600 nm. In all cases, signal from the TNP-ATP buffer control was subtracted as background. For all binding studies, STRADα and STRADα mutants were assayed at 2 µM. In cases where STRADα/MO25α complexes were assayed, wild-type or mutant MO25α (2 µM) were preincubated for at least 2 h at 4°C prior to a fluorescence binding experiment. For saturation binding experiments, concentrated stocks of TNP-ATP were added stepwise, covering a range of concentrations from 0.05 to 30 µM. For displacement experiments, the concentration of TNP-ATP was fixed at 5 µM, and ATP or ADP was titrated in, covering a range of concentrations from 0.05 to 500 µM.
(§2) All data were analysed using GraphPad-PRISM software (http://www.graphpad.com). […] In the displacement studies, equilibrium constant values for ATP and ADP were calculated by first determining the logEC50 value, using a standard dose-response equation: F x/F max = minimum+(maximum−minimum)/(1+10^([N]−logEC 50 ^)), where [N] equals the concentration of added nucleotide, and F x/F max represents the fractional occupancy. Equilibrium constants for the competing ATP and ADP (K d ^N), were fitted using the equation: logEC50 = log(10^logK d ^N × (1+[TNP−ATP]/K d ^TNP−ATP)).

The target of the next assay is T2, STRADα/MO25α complex (Homo sapiens, UniProt Q7RTN6).
T2 construct: wild-type and mutant forms of STRADα (residues 54–431) and MO25α (residues 1–341) were expressed individually as GST fusion proteins in E. coli; GST (cleaved yes); made in house; host or cells: E. coli
T2 sequence (Q7RTN6 54-431): T1 sequence (Q7RTN6 54-431)
T2 sequence (Q9Y376 1-341 partner): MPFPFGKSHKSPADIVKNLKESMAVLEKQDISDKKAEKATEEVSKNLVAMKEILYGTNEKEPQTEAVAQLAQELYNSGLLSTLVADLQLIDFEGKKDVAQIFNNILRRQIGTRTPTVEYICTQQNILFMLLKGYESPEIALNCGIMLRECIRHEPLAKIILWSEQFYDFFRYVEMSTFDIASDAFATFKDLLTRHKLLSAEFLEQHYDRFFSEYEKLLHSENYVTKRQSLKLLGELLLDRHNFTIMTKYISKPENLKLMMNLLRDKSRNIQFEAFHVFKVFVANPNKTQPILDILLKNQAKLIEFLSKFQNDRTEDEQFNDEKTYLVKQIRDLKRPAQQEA
The assay can be described thus: TNP-ATP saturation binding (fluorescence). Conditions: No Mg2+. The protocol:
as §1, §2

For assay [1], the target named is T3, His-STRADα (residues 59–431) (human, UniProt Q7RTN6 59-431, lysines chemically methylated in the 2.35 Å crystal form only).
T3 construct: STRADα (STe-20 Related Adaptor alpha), human, residues 59–431; Crystallised both unmethylated (4.8 Å) and lysine-methylated (2.35 Å, PDB 3GNI); unmethylated in SPR; also called N-terminally 6-His-tagged STRADα; His-tagged STRADα; source: E. coli BL21(DE3)pLysS, coexpressed with untagged MO25α, purified (Ni2+ IMAC, Superdex 75); for SPR separated from MO25α on Ni2+-agarose (500 mM NaCl washes, …)
T3 sequence (looked up): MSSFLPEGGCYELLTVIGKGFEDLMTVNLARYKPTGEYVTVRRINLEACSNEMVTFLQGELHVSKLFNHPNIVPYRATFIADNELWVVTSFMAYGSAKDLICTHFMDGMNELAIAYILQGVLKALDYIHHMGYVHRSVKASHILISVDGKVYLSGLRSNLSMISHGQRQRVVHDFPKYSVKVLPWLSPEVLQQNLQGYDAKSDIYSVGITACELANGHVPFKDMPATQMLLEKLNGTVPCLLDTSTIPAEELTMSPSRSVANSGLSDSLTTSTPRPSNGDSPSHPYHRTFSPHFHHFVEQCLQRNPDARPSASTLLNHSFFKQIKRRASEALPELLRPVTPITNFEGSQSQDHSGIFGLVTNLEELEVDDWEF
Put plainly: crystal structure; co-expressed His-STRADα(59–431)/MO25α(1–341) complex at 7.5 mg/ml with 10 mM ATP and 1 mM MgCl2, sitting drop; unmethylated crystals 4.8 Å, lysine-methylated crystals 2.35 Å, space group P212121. The conditions noted are these: both partners purified.

Assay [2] addresses T4, untagged STRADα (residues 59–431) (human, UniProt Q7RTN6 59-431).
T4 construct: STRADα, human, residues 59–431; also called STRADα lacking the His tag
T4 sequence (looked up): T3 sequence (looked up)
The assay can be described thus: SPR; as a2 but with 100 µM ATP and 1 mM MgCl2 (MgATP). Conditions: both partners purified. Background: In SPR one partner is held on a chip, and binding of the other changes the refractive index at the surface.

The target in assay [3] is T5, MO25α (M260A) (residues 1–341) (human, UniProt Q9Y376 1-341, M260A).
T5 sequence: T2 sequence (Q9Y376 1-341 partner) with M260A
The assay can be described thus: SPR.

Assay [4] has as its target T6, MO25α (R227A) (residues 1–341) (human, UniProt Q9Y376 1-341, R227A).
T6 sequence: T2 sequence (Q9Y376 1-341 partner) with R227A
Put plainly: SPR; ATP, Kd1.

For assay [5], the target named is T5, MO25α (M260A) (residues 1–341). The assay can be described thus: SPR; ATP, Kd1.
For assay [6] the target is unchanged. Put plainly: SPR; ATP, Kd2 (second site).
Assay [7] has as its target T7, MO25α (WT) (residues 1–341) (human, UniProt Q9Y376 1-341).
T7 chain: T2 sequence (Q9Y376 1-341 partner)
Put plainly: SPR; ATP+Mg2+, Kd2 (second site).

In assay [8] the target is T5, MO25α (M260A) (residues 1–341). Put plainly: SPR; ATP+Mg2+, Kd2 (second site).
The target in assay [9] is T6, MO25α (R227A) (residues 1–341). The assay can be described thus: SPR; ATP+Mg2+, Kd1.
The target in assay [10] is T7, MO25α (WT) (residues 1–341). The assay can be described thus: SPR; ATP+Mg2+, Kd1.
In assay [11] the target is T5, MO25α (M260A) (residues 1–341). The assay can be described thus: SPR; ATP+Mg2+, Kd1.

Residue numbers refer to the chain shown, from its start. Names may count otherwise.

A word on the Kd: it is a measure of binding affinity in units of concentration. `Nc1ncnc2c1ncn2[C@@H]1O[C@H](COP(=O)(O)OP(=O)(O)OP(=O)(O)O)[C@H]2OC3(O[C@H]21)C([N+](=O)[O-])=CC(=[N+]([O-])[O-])C=C3[N+](=O)[O-]` (some centres unmarked) [TNP-ATP, 2′,3′-O-2,4,6-trinitrophenyl-ATP]: the Kd at STRADα (0.5 mM Mg2+) is 1300 ± 800 nM; at STRADα (No Mg2+), 1100 nM; on STRADα/MO25α complex, 90 ± 30 nM.

B1: full-length MO25α (residues 1–341), untagged (natural protein, human, UniProt Q9Y376 1-341, looked up)
chain: T2 sequence (Q9Y376 1-341 partner)
modifications: lysines chemically methylated in the 2.35 Å crystal form only
notes: MO25α, human, full length, residues 1–341; source: E. coli BL21(DE3)pLysS, coexpressed with His-STRADα, co-purified (Ni2+ IMAC, Superdex 75)
As to B1, in assay [1], the binding result is recorded as “binds”.

B2: MO25α (R227A) (residues 1–341) (natural protein, human, UniProt Q9Y376 1-341, looked up)
chain: T2 sequence (Q9Y376 1-341 partner) with R227A
notes: MO25α, human, residues 1–341 (full length), R227A; source: E. coli, expressed individually as GST fusion, purified on glutathione-Sepharose, eluted with PreScission protease
Regarding B2, the binding result in [2] was “binds”.

B3: untagged STRADα (residues 59–431) (domain or fragment)
chain: T3 sequence (looked up)
For the molecule B3, the Kd amounted to 8.1 µM in [3]; 600 nM in [4]; 1500 nM in [5]; 30 nM in [6]; 51 nM in assay [7]; 82 nM in [8]. Also, the Kd amounted to 800 nM in [9], 5.1 µM in [10] and 2300 nM in assay [11].
